Assay results reported in patent US6521602 (GPC BIOTECH, dated 2003).
Blank lines part the entries; values can stand above or below the molecule they belong to.

Molecular target: CDK4/cyclin D1 complex (UniProt P11802 1-303; P24385 1-295)
Assay: cell-based or functional assay

CDK4/cyclin D1 complex, sequence (P11802 whole entry, chain 1 of 2): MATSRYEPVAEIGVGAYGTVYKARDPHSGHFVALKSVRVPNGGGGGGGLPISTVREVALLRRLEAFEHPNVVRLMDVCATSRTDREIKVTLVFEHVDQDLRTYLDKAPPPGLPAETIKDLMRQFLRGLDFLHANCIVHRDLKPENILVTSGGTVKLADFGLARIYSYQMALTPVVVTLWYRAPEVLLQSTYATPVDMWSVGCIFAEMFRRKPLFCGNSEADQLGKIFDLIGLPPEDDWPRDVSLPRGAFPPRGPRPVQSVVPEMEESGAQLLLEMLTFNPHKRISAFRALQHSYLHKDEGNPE
CDK4/cyclin D1 complex, sequence (P24385 whole entry, chain 2 of 2): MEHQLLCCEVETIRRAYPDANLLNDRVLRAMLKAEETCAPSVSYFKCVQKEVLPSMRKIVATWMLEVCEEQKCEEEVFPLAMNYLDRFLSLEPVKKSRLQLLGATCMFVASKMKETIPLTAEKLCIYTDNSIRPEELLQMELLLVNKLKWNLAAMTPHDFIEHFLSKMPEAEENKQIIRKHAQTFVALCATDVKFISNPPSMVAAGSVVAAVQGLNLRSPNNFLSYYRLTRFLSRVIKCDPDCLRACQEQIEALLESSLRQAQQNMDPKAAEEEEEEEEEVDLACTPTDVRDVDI

IC50, in vitro kinase activity: 63 nM
Molecule: human p27 (from UniProt P46527 1-198)

IC50, in vitro kinase activity: 250 nM
B1: human p16 (other)
chain: MEPAAGSSMEPSADWLATAAARGRVEEVRALLEAGALPNAPNSYGRRPIQVMMMGSARVAELLLLHGAEPNCADPATLTRPVHDAAREGFLDTLVVLHRAGARLDVRDAWGRLPVDLAEELGHRDVARYLRAAAGGTRGSNHARIDAAEGPSDIPD
